What all share (format): biochemical, bovine
The target of test [1] is T1, BSA (Bos taurus, UniProt P02769).
T1 construct: purchased Sigma-Aldrich A3059
Put plainly: Real-time monitoring of trypsin digestion of BSA using epicocconone (FluoStar assay). As to conditions: epicocconone reporter dye, bicine pH 8.4, 37° C., trypsin 1:40, reduced and alkylated BSA. How it is done:
A.3.1 Preparation of BSA for digestion • 1 Trypsin digestion was carried out in bicine buffer (ph 8.4). • 2 BSA was prepared in 10 mg/mL in 50 mM bicine buffer. • 3 One hundred microliter of the BSA sample was used for trypsin digestion.
A.3.2 Reduction and Alkylation • 1 The 100 μL of BSA sample was reduced by adding 5 μL of DTT stock for 10 min at 80° C. • 2 The sample was alkylated by adding 4 μL of the iodoacetamide stock at room temperature for 45 min-1 hr. • 3 The remaining iodoacetamide of the sample was neutralized by adding 20 μL of the DTT at room temp for 45 min-1 hr.
A.3.3 Real-Time Monitoring of Trypsin Digestion Using Epicocconone (FluoStar Assay) • 1 The reduced and denatured BSA sample from 3.2 above was diluted 10-fold in 50 mM bicine buffer (25 μL+225 μL bicine buffer). BSA molar concentration was calculated to be approx. 4 μM. • 2 One hundred microliter of the sample (step 1) was prepared in duplicates and added to a microtiter plate. […] At this point in time, it required approximately 10 min to get appropriate FluoStar setting conditions. • 4 Trypsin (Sigma-Aldrich T6567), reconstituted in 1 mM HCl, was added at a ratio of 1:40. • 5 Fluorescence development was monitored in real time every 2 minutes up to 6 hours using FluoStar (Ex/Em=540/630±12). […]

A further test has as its target T2, carbonic anhydrase (CA) (Bos taurus, UniProt P00921).
T2 construct: purchased Sigma-Aldrich C7025
Put plainly: Real-time monitoring of tryptic digestion of carbonic anhydrase using epicocconone with and without SDS. The protocol:
• 1 Trypsin digestion was carried out in bicine buffer (pH 8.4) • 2 Protein samples were prepared in 10 mg/mL in 100 mM bicine buffer. • 3 One hundred microliter of the protein sample was used for trypsin digestion.
• 4. The 100 μL of protein samples was reduced by adding 1 μL of 10% SDS and 5 μL of DTT stock for 10 min at 80° C. • 5. Another sample was reduced with only 5 μL of DTT stock for 10 min at 80° C. (no SDS) • 3 The samples were alkylated by adding 4 μL of the iodoacetamide stock at room temperature for 45 min-1 hr. • 4 The remaining iodoacetamide of the samples were neutralised by adding 20 μL of the DTT at room temp for 45 min-1 hr. […] Fluorescence development was monitored in real time every 2 minutes up to 400 minutes using FluoStar (Ex/Em=540±10/[…]±10). • 16. […]
Progress curves were fitted as per Example 6. […] In the presence of a non-denaturing quantity of detergent (open squares) carbonic anhydrase (CA) becomes more hydrophobic and has an increase in fluorescence when exposed to a fluorophore that is sensitive to its environment such as epicocconone. Upon addition of trypsin, the fluorescence drops as per Example 6 but in the sample with no SDS (inverted triangles) the change in fluorescence is reduced by more than 50% compared to in the presence of SDS (open circles). […]

In test [2] the target is T1, BSA. Put plainly: Tryptic digestion of BSA followed with Nile Red. To be noted: Nile Red reporter dye. The protocol: • As per Example 2 above. • Nile Red (20 mM in ethanol, Sigma-Aldrich, 73189) diluted to 100-fold in 50 mM bicine
As per Example 2 except the Fluorostar plate reader was set to 520 nm excitation and 630 (±10 nm) bandpass emission filter.

T1 sequence (P02769 25-607): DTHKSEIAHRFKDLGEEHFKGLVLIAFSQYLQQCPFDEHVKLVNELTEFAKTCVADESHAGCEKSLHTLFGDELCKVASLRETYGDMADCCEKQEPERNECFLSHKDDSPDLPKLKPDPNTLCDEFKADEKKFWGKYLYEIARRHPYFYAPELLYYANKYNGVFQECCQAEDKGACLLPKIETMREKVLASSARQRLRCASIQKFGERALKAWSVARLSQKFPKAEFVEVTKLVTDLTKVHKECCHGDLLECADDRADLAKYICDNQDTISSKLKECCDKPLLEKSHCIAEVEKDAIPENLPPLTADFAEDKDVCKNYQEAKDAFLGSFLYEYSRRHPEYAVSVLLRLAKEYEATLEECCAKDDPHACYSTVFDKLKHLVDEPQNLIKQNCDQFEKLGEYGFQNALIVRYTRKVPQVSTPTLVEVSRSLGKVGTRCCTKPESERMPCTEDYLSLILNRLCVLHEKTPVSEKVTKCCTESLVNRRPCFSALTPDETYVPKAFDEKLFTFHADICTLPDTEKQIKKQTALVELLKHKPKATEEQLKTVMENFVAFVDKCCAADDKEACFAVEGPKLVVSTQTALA
T2 sequence (P00921 whole entry): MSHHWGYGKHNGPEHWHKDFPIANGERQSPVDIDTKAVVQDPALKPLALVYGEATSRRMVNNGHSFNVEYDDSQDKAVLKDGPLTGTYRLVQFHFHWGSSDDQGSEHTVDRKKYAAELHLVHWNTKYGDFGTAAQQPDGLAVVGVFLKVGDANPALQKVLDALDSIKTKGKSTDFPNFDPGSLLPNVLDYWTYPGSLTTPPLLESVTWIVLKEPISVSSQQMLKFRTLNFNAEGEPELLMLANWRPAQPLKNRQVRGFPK

B1: trypsin: Proteomics grade trypsin protease, Sigma-Aldrich T6567 (protein, UniProt P00761 9-231, looked up)
Trypsin: IVGGYTCAANSIPYQVSLNSGSHFCGGSLINSQWVVSAAHCYKSRIQVRLGEHNIDVLEGNEQFINAAKIITHPNFNGNTLDNDIMLIKLSSPATLNSRVATVSLPRSCAAAGTECLISGWGNTKSSGSSYPSLLQCLKAPVLSDSSCKSSYPGQITGNMICVGFLEGGKDSCQGDSGGPVVCNGQLQGIVSWGYGCAQKNKPGVYTKVCNYVNWIQQTIAAN
Take B1: the “apparent first order rate constant” value with BSA [1] was determined as 0.109 min⁻¹. Besides, the observed rate constant with carbonic anhydrase (CA) (with SDS) and with carbonic anhydrase (CA) (without SDS) was 0.025 min⁻¹ each time. Moreover, in the test with BSA [2], the “apparent first order rate constant for tryptic digestion” value is 0.1302 min⁻¹.

The record behind these values is US20090111104A1, “Method for Monitoring Hydrolytic Activity” (Fluorotechnics Pty Limited, priority 2005, published 2009).
